Test results from publication PMC11368889 (2024).

Molecular target: Histone H3 (H3K9me3) (Homo sapiens, UniProt P68431)
Assay: fluorescence microscopy titration in fixed HEK293 cells (Hill1 fit)

B1: MPP8-Green (MPP8-mNeonGreen-NLS-MPP8) 55-117 (protein)
chain: GEDVFEVEKILDMKTEGGKVLYKVRWKGYTSDDDTWEPEIHLEDCKEVLLEFRKKIAENKAKA
Kd: 490 nM
